According to patent publication US20170210824A1:

Biological target: 3-pTza peptide library (Ac-Cys.G/A.G/A.G/A.G/A.X.G/A.G/A.G/A.G/A-CONH2, X = 3-pTza)
Assay: 3-pTza peptide dot blot array

- lowest amount detected: 800 pg
B1: 3-pHis mAb SC44-8 (antibody, V domains shown)
VH: ESGRGLVQPGGSLTLTCTASGFSIDSYGFSWVRQAPGKGLEHIGYLTAGGRAFYASWAKSRSTITRNTNENTVTLKMTSLTAADTATYFCAKLGSGNPVAIWGPGTLVTVSS
VL: DPVMTPTPSFTSAAVGGTVTINCQSSQSVWRNKNLAWYQQKPGQPPKRLIYAIATLDSGVPSRFSGSGSGTQFTLTISDVQCDDAATYYCVGHYGSENDAYYAFGGGTEVVVKG
